Laboratory results from PMC5712427.

Target: Full length human APOBEC3G (human) (UniProt Q9HC16)
Assay: time-lapse high-speed AFM

stoichiometry N: 2
Substance: Full length human APOBEC3G (from UniProt Q9HC16 1-384) (enzyme)
